The sequences below were run on Escherichia coli TOP10 (assay: shrunken log2 fold change of peptide-encoding DNA abundance (4.5 h post-induction vs induction); higher = less antimicrobial activity (less host growth inhibition)). Conditions: time post-induction: 4.5 h; library: site-saturation at positions 5, 18, 19, 20.
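Also: peptides expressed intracellularly from a pBAD plasmid library in pooled LB shake-flask culture, induced with 0.3% L-arabinose, DNA abundance read by NGS, three biological replicates, DESeq2 with apeglm shrinkage.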

RRIRTRPPRLPRPRPRPFRSPRP and RRIRFRPPRLPRPRPRPIRIPRP are within 0.2 log units of each other in “shrunken log2 fold change” value: -0.144 for the first, -0.223 for the second.

RRIRSRPPRLPRPRPRPEQEPRP and RRIRLRPPRLPRPRPRPQTMPRP are within 0.2 log units of each other in “shrunken log2 fold change” value: 0.0257 for the first, -0.0345 for the second.

RRIRMRPPRLPRPRPRPQKMPRP and RRIRPRPPRLPRPRPRPMEFPRP are within 0.2 log units of each other in “shrunken log2 fold change” value: 0.0453 for the first, 0.00564 for the second.

Going from RRIRIRPPRLPRPRPRPREFPRP to RRIRMRPPRLPRPRPRPSRWPRP, the “shrunken log2 fold change” value rises from 0.0231 to 1.

Going from RRIRMRPPRLPRPRPRPITDPRP to RRIRQRPPRLPRPRPRPKSSPRP, the “shrunken log2 fold change” value rises from -0.667 to 0.0321.

Compared with RRIRRRPPRLPRPRPRPFYFPRP, RRIRVRPPRLPRPRPRPPPNPRP is higher in “shrunken log2 fold change” value: 0.116 for the first, 0.73 for the second.

First: RRIRTRPPRLPRPRPRPASHPRP
Second: RRIRRRPPRLPRPRPRPWPVPRP
The “shrunken log2 fold change” value of the first is lower: -0.42 for the first, 0.0907 for the second.

First: RRIRERPPRLPRPRPRPILHPRP
Second: RRIRFRPPRLPRPRPRPWLIPRP
The “shrunken log2 fold change” value of the first is higher: -0.0255 for the first, -0.441 for the second.

Going from RRIRTRPPRLPRPRPRPHCSPRP to RRIRERPPRLPRPRPRPPFYPRP, the “shrunken log2 fold change” value falls from -0.0966 to -0.367.

Compared with RRIRWRPPRLPRPRPRPPANPRP, RRIRRRPPRLPRPRPRPPSWPRP is lower in “shrunken log2 fold change” value: 0.629 for the first, 0.295 for the second.

RRIRCRPPRLPRPRPRPFACPRP and RRIRQRPPRLPRPRPRPNKAPRP are within 0.2 log units of each other in “shrunken log2 fold change” value: -0.22 for the first, -0.041 for the second.

RRIRWRPPRLPRPRPRPMYRPRP and RRIRYRPPRLPRPRPRPGRDPRP are within 0.2 log units of each other in “shrunken log2 fold change” value: -0.233 for the first, -0.204 for the second.

RRIRERPPRLPRPRPRPFKDPRP and RRIRMRPPRLPRPRPRPPKFPRP are within 0.2 log units of each other in “shrunken log2 fold change” value: -0.0062 for the first, 0.166 for the second.

Compared with RRIRCRPPRLPRPRPRPIQQPRP, RRIRVRPPRLPRPRPRPVNMPRP is lower in “shrunken log2 fold change” value: -0.0847 for the first, -0.418 for the second.

Going from RRIRFRPPRLPRPRPRPTKFPRP to RRIRSRPPRLPRPRPRPIMMPRP, the “shrunken log2 fold change” value rises from -0.355 to -0.0828.

First: RRIRDRPPRLPRPRPRPAYPPRP
Second: RRIRNRPPRLPRPRPRPNIMPRP
The “shrunken log2 fold change” value of the first is higher: 0.147 for the first, -0.599 for the second.

RRIRNRPPRLPRPRPRPLYKPRP and RRIRKRPPRLPRPRPRPNPYPRP are within 0.2 log units of each other in “shrunken log2 fold change” value: -0.561 for the first, -0.384 for the second.

Compared with RRIRYRPPRLPRPRPRPSWYPRP, RRIRPRPPRLPRPRPRPFSSPRP is higher in “shrunken log2 fold change” value: -0.772 for the first, -0.322 for the second.

Going from RRIRCRPPRLPRPRPRPQFRPRP to RRIRTRPPRLPRPRPRPTQPPRP, the “shrunken log2 fold change” value rises from -0.434 to 0.176.

Going from RRIRSRPPRLPRPRPRPHACPRP to RRIRARPPRLPRPRPRPWRPPRP, the “shrunken log2 fold change” value rises from -0.0756 to 0.348.

RRIRGRPPRLPRPRPRPGWWPRP and RRIRKRPPRLPRPRPRPNHCPRP are within 0.2 log units of each other in “shrunken log2 fold change” value: 0.113 for the first, 0.0144 for the second.

Compared with RRIRDRPPRLPRPRPRPSSHPRP, RRIRCRPPRLPRPRPRPNNMPRP is lower in “shrunken log2 fold change” value: -0.124 for the first, -0.745 for the second.

Going from RRIRTRPPRLPRPRPRPKIAPRP to RRIRIRPPRLPRPRPRPILAPRP, the “shrunken log2 fold change” value falls from -0.0425 to -0.286.

RRIRKRPPRLPRPRPRPVDSPRP and RRIRHRPPRLPRPRPRPIWVPRP are within 0.2 log units of each other in “shrunken log2 fold change” value: 0.134 for the first, 0.0163 for the second.

RRIRRRPPRLPRPRPRPEWDPRP and RRIRGRPPRLPRPRPRPEQGPRP are within 0.2 log units of each other in “shrunken log2 fold change” value: 0.426 for the first, 0.374 for the second.

RRIRSRPPRLPRPRPRPYTYPRP and RRIRERPPRLPRPRPRPMHRPRP are within 0.2 log units of each other in “shrunken log2 fold change” value: -0.0783 for the first, -0.157 for the second.

Going from RRIRTRPPRLPRPRPRPQNWPRP to RRIRARPPRLPRPRPRPGHEPRP, the “shrunken log2 fold change” value rises from -0.265 to 0.054.

Going from RRIRTRPPRLPRPRPRPTISPRP to RRIRVRPPRLPRPRPRPEAIPRP, the “shrunken log2 fold change” value rises from -0.488 to -0.0125.

Going from RRIRARPPRLPRPRPRPGASPRP to RRIRPRPPRLPRPRPRPFCFPRP, the “shrunken log2 fold change” value falls from 0.978 to 0.337.

First: RRIRIRPPRLPRPRPRPFSFPRP
Second: RRIRTRPPRLPRPRPRPGWLPRP
The “shrunken log2 fold change” value of the first is lower: -0.742 for the first, 0.445 for the second.
